Earlier results, collected in publication PMC6474356.
Like-named read-outs stand apart in the source and are kept apart here.

Key:
[1] = target: calmodulin (Homo sapiens) (UniProt P0DP23)
[2] = target: calmodulin (Homo sapiens) (UniProt P0DP23); remark: listed apart in the source

Substance | Kd [1] [nM] | Kd [2] [nM]
eEF-2K (from UniProt O00418) | 17 | 
eEF-2K CBD peptide CBD (from UniProt O00418) |  | 245
